Source: PMC314469, “Protein Interaction Networks by Proteome Peptide Scanning” (PLoS Biology, 2004)

Molecular target: T1, Abp1 SH3 (ABP1_YEAST), P15891
T1 chain: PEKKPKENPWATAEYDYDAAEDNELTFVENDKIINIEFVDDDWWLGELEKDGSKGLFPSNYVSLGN
Experiment: SPOT array

DPEPAKASTKPEKP [YNL106C 1102-1115]
normalised SPOT signal, Boehringer light units (BLU); mean over the file's lines of this peptide: 76.2

DVGSTIPYDFPEKP [YGL212W 55-68]
normalised SPOT signal, Boehringer light units (BLU); mean over the file's lines of this peptide: 140

DLEFIYDTFHPFKP [YPL009C 301-314]
normalised SPOT signal, Boehringer light units (BLU); mean over the file's lines of this peptide: 89.2

DMERKMTPALNRP [YDR074W 548-560]
normalised SPOT signal, Boehringer light units (BLU); mean over the file's lines of this peptide: 2180

EDDTNPQLLEPVKP [YDR528W 157-170]
normalised SPOT signal, Boehringer light units (BLU); mean over the file's lines of this peptide: 86.1

EEPEDFLPPPPKP [YLR285W 15-27]
normalised SPOT signal, Boehringer light units (BLU); mean over the file's lines of this peptide: 108

EEEIELPPGVKKP [YFL004W 659-671]
normalised SPOT signal, Boehringer light units (BLU); mean over the file's lines of this peptide: 77.1

DIDMPVNPPFRKP [YBL015W 191-203]
normalised SPOT signal, Boehringer light units (BLU); mean over the file's lines of this peptide: 257

DLNNLKHPSKGRP [YMR304W 152-164]
normalised SPOT signal, Boehringer light units (BLU); mean over the file's lines of this peptide: 86.6

DSIAKLQPQVYKP [YFR037C 542-554]
normalised SPOT signal, Boehringer light units (BLU); mean over the file's lines of this peptide: 83.3

DVDSSSTPFGTKP [YIL115C 681-693]
normalised SPOT signal, Boehringer light units (BLU); mean over the file's lines of this peptide: 113

DILDDLSSQKPQKP [YJR033C 1330-1343]
normalised SPOT signal, Boehringer light units (BLU); mean over the file's lines of this peptide: 131

EALKQKKIPPPFKP [YHR205W 677-690]
normalised SPOT signal, Boehringer light units (BLU); mean over the file's lines of this peptide: 3010

DQNQERKNSVPKKP [YHR004C 68-81]
normalised SPOT signal, Boehringer light units (BLU); mean over the file's lines of this peptide: 60

DLPRLKWSAIPVRP [YMR265C 218-231]
normalised SPOT signal, Boehringer light units (BLU); mean over the file's lines of this peptide: 2060

DVMKQSFPRLIKP [YPL073C 93-105]
normalised SPOT signal, Boehringer light units (BLU); mean over the file's lines of this peptide: 2470

DNDEEADPSSFKP [YLR087C 1186-1198]
normalised SPOT signal, Boehringer light units (BLU); mean over the file's lines of this peptide: 68.3

DVKKEQAPEGKRP [YDL213C 31-43]
normalised SPOT signal, Boehringer light units (BLU); mean over the file's lines of this peptide: 94.6

DNARKSEELYPGRP [YAL038W 65-78]
normalised SPOT signal, Boehringer light units (BLU); mean over the file's lines of this peptide: 105

DQVPVTTQLPPIKP [YER159C 3-16]
normalised SPOT signal, Boehringer light units (BLU); mean over the file's lines of this peptide: 74.1

DLNDSGFPPKRKP [YMR275C 4-16]
normalised SPOT signal, Boehringer light units (BLU); mean over the file's lines of this peptide: 84.6

DTLYINGIRIPYRP [YPR032W 898-911]
normalised SPOT signal, Boehringer light units (BLU); mean over the file's lines of this peptide: 135

DPQIMDEYSYPGRP [YDR182W 95-108]
normalised SPOT signal, Boehringer light units (BLU); mean over the file's lines of this peptide: 144

DTNDIKTPHPERP [YER169W 627-639]
normalised SPOT signal, Boehringer light units (BLU); mean over the file's lines of this peptide: 77.3

DKQLIWHKSKPVKP [YBL005W-B 1588-1601]
normalised SPOT signal, Boehringer light units (BLU); mean over the file's lines of this peptide: 2860

DVPNTAGPHIARP [YOR028C 108-120]
normalised SPOT signal, Boehringer light units (BLU); mean over the file's lines of this peptide: 144

DKKDLDSPIEVKP [YKL092C 848-860]
normalised SPOT signal, Boehringer light units (BLU); mean over the file's lines of this peptide: 36.5

DRRRLLGPAAAKP [YGR158C 5-17]
normalised SPOT signal, Boehringer light units (BLU); mean over the file's lines of this peptide: 483

DSKGARFLPAPHRP [YGR154C 60-73]
normalised SPOT signal, Boehringer light units (BLU); mean over the file's lines of this peptide: 299

DVIISPTTLMPFRP [YDR242W 443-456]
normalised SPOT signal, Boehringer light units (BLU); mean over the file's lines of this peptide: 68.9

EDEEGPPPAMPARP [YBL007C 188-201]
normalised SPOT signal, Boehringer light units (BLU); mean over the file's lines of this peptide: 36.2

DKKIGSMAINPMRP [YDL156W 333-346]
normalised SPOT signal, Boehringer light units (BLU); mean over the file's lines of this peptide: 183

DMFDFLIDVVPRRP [YOR358W 226-239]
normalised SPOT signal, Boehringer light units (BLU); mean over the file's lines of this peptide: 230

DSSSANGKFIPSRP [YHL007C 462-475]
normalised SPOT signal, Boehringer light units (BLU); mean over the file's lines of this peptide: 98.6

DVITHFGPDADKP [YBL035C 6-18]
normalised SPOT signal, Boehringer light units (BLU); mean over the file's lines of this peptide: 25.6

EEKAKAVNELPTKP [YGR037C 7-20]
normalised SPOT signal, Boehringer light units (BLU); mean over the file's lines of this peptide: 188

DNIAEYVPDKKRP [YMR266W 274-286]
normalised SPOT signal, Boehringer light units (BLU); mean over the file's lines of this peptide: 91

DKQLIWHKNKPTKP [YBL101W-B 1603-1616]
normalised SPOT signal, Boehringer light units (BLU); mean over the file's lines of this peptide: 1730

DLTVLRKPQQLRP [YDR488C 342-354]
normalised SPOT signal, Boehringer light units (BLU); mean over the file's lines of this peptide: 27100

DKTRSSLHFKPMRP [YNL023C 749-762]
normalised SPOT signal, Boehringer light units (BLU); mean over the file's lines of this peptide: 377

EEEEGEVLLPPSRP [YLR079W 130-143]
normalised SPOT signal, Boehringer light units (BLU); mean over the file's lines of this peptide: 81.5

DLHTHNLHTIPRKP [YNL042W 273-286]
normalised SPOT signal, Boehringer light units (BLU); mean over the file's lines of this peptide: 76

DVAQPGGVAKPKKP [YNL298W 506-519]
normalised SPOT signal, Boehringer light units (BLU); mean over the file's lines of this peptide: 62

EEFPEIIPLQQRP [YPL117C 30-42]
normalised SPOT signal, Boehringer light units (BLU); mean over the file's lines of this peptide: 145

DSSLQHQQRQPKRP [YJR147W 209-222]
normalised SPOT signal, Boehringer light units (BLU); mean over the file's lines of this peptide: 105

DSVLRQKPDKPRP [YMR032W 380-392]
normalised SPOT signal, Boehringer light units (BLU); mean over the file's lines of this peptide: 380

DTKRLGTPESVKP [YLR071C 1030-1042]
normalised SPOT signal, Boehringer light units (BLU); mean over the file's lines of this peptide: 130

DKVFIPDPKTGRP [YAL054C 106-118]
normalised SPOT signal, Boehringer light units (BLU); mean over the file's lines of this peptide: 66.6

DLPEYLLPPDLKP [YDR477W 309-321]
normalised SPOT signal, Boehringer light units (BLU); mean over the file's lines of this peptide: 23.2

DWALLRNQNDPQKP [YLR357W 414-427]
normalised SPOT signal, Boehringer light units (BLU); mean over the file's lines of this peptide: 145

DSIWPDFETLPERP [YLL029W 272-285]
normalised SPOT signal, Boehringer light units (BLU); mean over the file's lines of this peptide: 0

DTERLKRDLSPRKP [YBL111C 228-241]
normalised SPOT signal, Boehringer light units (BLU); mean over the file's lines of this peptide: 394

EEFDSYSRSRPTRP [YNL165W 290-303]
normalised SPOT signal, Boehringer light units (BLU); mean over the file's lines of this peptide: 254

DKYSTLRPGIPLKP [YDL164C 380-393]
normalised SPOT signal, Boehringer light units (BLU); mean over the file's lines of this peptide: 1000

DLKSRVLPHLKKP [YNL241C 60-72]
normalised SPOT signal, Boehringer light units (BLU); mean over the file's lines of this peptide: 440

DVLFSYFPITFKP [YIL128W 218-230]
normalised SPOT signal, Boehringer light units (BLU); mean over the file's lines of this peptide: 32.1

EDFKDTKPVHKKP [YOR287C 64-76]
normalised SPOT signal, Boehringer light units (BLU); mean over the file's lines of this peptide: 144

DIEMKDVSSKPSKP [YPR070W 510-523]
normalised SPOT signal, Boehringer light units (BLU); mean over the file's lines of this peptide: 85.7
